These results are taken from patent publication US20030108992A1.

One assay concerns the target p60 TNFR (endogenous) (UniProt P19438). Put plainly: cell-based or functional assay.
The target of assay [1] is p60 55-211 (UniProt P19438). Put plainly: flow cytometry of transfected cells; normalized against HA staining. (A flow cytometer gives signals particle by particle.)
Assay [2] deals with p60ΔCD-HA (UniProt P19438). The description is as above.
In assay [3] the target is p60ΔCD-HA DT49/50AA (UniProt P19438). Described as above.
Assay [4] concerns the target p60ΔCD-HA E57A (UniProt P19438). Described as above.
Assay [5] has as its target p60ΔCD-HA K19E (UniProt P19438). Described as above.
Assay [6] addresses p60ΔCD-HA K32A (UniProt P19438). Described as above.
For assay [7], the target named is p60ΔCD-HA KY19/20AA (UniProt P19438). The description is as above.
The target in assay [8] is p60ΔCD-HA L112E (UniProt P19438). The description is as above.
Assay [9] addresses p60ΔCD-HA N66F (UniProt P19438). The description is as above.
Assay [10] concerns the target p60ΔCD-HA Q24A (UniProt P19438). The description is as above.
The target of assay [11] is p60ΔCD-HA R77A (UniProt P19438). The assay is described as above.
The target of assay [12] is p60ΔCD-HA T61A (UniProt P19438). The assay is described as above.
Assay [13] has as its target p60ΔCD-HA W108T (UniProt P19438). Described as above.
The target in the next assay is Fas 1-210:YFP (human) (UniProt P25445). Put plainly: CFP dequenching after YFP photobleaching, fluorescence microscope.
Assay [14] has as its target p60 55-211 (UniProt P19438). Put plainly: flow cytometry of transfected cells; % MAB225 positive / % HA positive.
Assay [15] has as its target p60ΔCD-HA (UniProt P19438). The assay is described as above.
Assay [16] deals with p60ΔCD-HA DT49/50AA (UniProt P19438). Described as above.
Assay [17] addresses p60ΔCD-HA E57A (UniProt P19438). The assay is described as above.
Assay [18] concerns the target p60ΔCD-HA K19E (UniProt P19438). The assay is described as above.
Assay [19] concerns the target p60ΔCD-HA K32A (UniProt P19438). The assay is described as above.
The target in assay [20] is p60ΔCD-HA KY19/20AA (UniProt P19438). Described as above.
Assay [21] deals with p60ΔCD-HA L112E (UniProt P19438). The description is as above.
Assay [22] deals with p60ΔCD-HA N66F (UniProt P19438). The description is as above.
The target of assay [23] is p60ΔCD-HA Q24A (UniProt P19438). Described as above.
For assay [24], the target named is p60ΔCD-HA R77A (UniProt P19438). The description is as above.
For assay [25], the target named is p60ΔCD-HA T61A (UniProt P19438). The assay is described as above.
For assay [26], the target named is p60ΔCD-HA W108T (UniProt P19438). The assay is described as above.

The substance “p60ΔCD-HA R77A (from UniProt P19438 30-240) (receptor)” returned a DOMINANT … (protection against TNF-induced death) (% of p60ΔCD wild type) with p60 TNFR (endogenous) of 50.
For “p60ΔCD-HA K32A (from UniProt P19438 30-240) (receptor)”, in the assay with p60 TNFR (endogenous), the DOMINANT … (protection against TNF-induced death) is less than 5 % protection.
Same read-out and setting: the value for “p60ΔCD-HA KY19/20AA (from UniProt P19438 30-240) (receptor)” was less than 5 % protection; that for “p60 55-211 (from UniProt P19438 55-211) (receptor)” was less than 5 % protection.
“p60ΔCD-HA T61A (from UniProt P19438 30-240) (receptor)”: the DOMINANT … (protection against TNF-induced death) (% of p60ΔCD wild type) in the assay with p60 TNFR (endogenous) was 50.
Same read-out and setting: the value for “p60ΔCD-HA N66F (from UniProt P19438 30-240) (receptor)” was 50.
Consider “p60-specific monoclonal antibody clone 4.12 (Zymed)”, for which the clone 4.12 staining normalized to HA staining (ratio, p60ΔCD set at 1) in the assay with p60 55-211 [1] turned out to be 0.02; with p60ΔCD-HA [2] it was 1; with p60ΔCD-HA DT49/50AA [3], 0.96; with p60ΔCD-HA E57A [4] it was 0.04; in the assay with p60ΔCD-HA K19E [5], 1.07; with p60ΔCD-HA K32A [6], 0.01. For the same substance, the clone 4.12 staining normalized to HA staining (ratio, p60ΔCD set at 1) with p60ΔCD-HA KY19/20AA [7] was 0.14; with p60ΔCD-HA L112E [8], 1.27; with p60ΔCD-HA N66F [9], 0.04; with p60ΔCD-HA Q24A [10] it was 0.97; in the assay with p60ΔCD-HA R77A [11], 0.99; in the assay with p60ΔCD-HA T61A [12], 1.28. In addition, in the assay with p60ΔCD-HA W108T [13], the clone 4.12 staining normalized to HA staining (ratio, p60ΔCD set at 1) amounted to 1.11.
In turn, “Fas 1-210:CFP (from UniProt P25445 17-226) (receptor)” gave an FRET efficiency with Fas 1-210:YFP (human) of 16%.
For the substance “p60ΔCD-HA DT49/50AA (from UniProt P19438 30-240) (receptor)”, the DOMINANT … (protection against TNF-induced death) (% of p60ΔCD wild type) with p60 TNFR (endogenous) was found to be 50.
On to “p60ΔCD-HA Q24A (from UniProt P19438 30-240) (receptor)”, for which, in the assay with p60 TNFR (endogenous), the DOMINANT … (protection against TNF-induced death) (% of p60ΔCD wild type) was 50.
The same measure, in the same setting: the value for “p60ΔCD-HA K19E (from UniProt P19438 30-240) (receptor)” was 50.
Same read-out and setting: the value for “p60ΔCD-HA E57A (from UniProt P19438 30-240) (receptor)” was 50.
“p60-specific monoclonal antibody clone MAB225 (R&D Systems)”: the MAB225 staining normalized to HA staining (ratio, p60ΔCD set at 1) in the assay with p60 55-211 [14] came to 0.87; with p60ΔCD-HA [15], 1; with p60ΔCD-HA DT49/50AA [16], 1.16; in the assay with p60ΔCD-HA E57A [17], 1.68; with p60ΔCD-HA K19E [18] it was 1.05; in the assay with p60ΔCD-HA K32A [19], 0.36. Also, the MAB225 staining normalized to HA staining (ratio, p60ΔCD set at 1) with p60ΔCD-HA KY19/20AA [20] is 0.59; with p60ΔCD-HA L112E [21], 1.31; with p60ΔCD-HA N66F [22], 0.67; with p60ΔCD-HA Q24A [23] it was 1.06; in the assay with p60ΔCD-HA R77A [24], 1.06; with p60ΔCD-HA T61A [25], 1.42. For the same substance, the MAB225 staining normalized to HA staining (ratio, p60ΔCD set at 1) in the assay with p60ΔCD-HA W108T [26] stood at 1.32.
“p60ΔCD-HA W108T (from UniProt P19438 30-240) (receptor)” displayed a DOMINANT … (protection against TNF-induced death) (% of p60ΔCD wild type) in the assay with p60 TNFR (endogenous) of 50.
Same read-out and setting: the value for “p60ΔCD-HA (from UniProt P19438 30-240) (receptor)” was 50; that for “p60ΔCD-HA L112E (from UniProt P19438 30-240) (receptor)” was 50.
